Data: US20090281024A1 (RAPTOR PHARMACEUTICALS, published 2009)
Substitutions are numbered along the chain they refer to.

Tests used:
Assay in all cases: solid-phase binding assay: LRP2 CR89 coated on the plate, d3 ligand in solution, anti-RAP detection, absorbance
RAP d3 E217K = biological target: T1, RAP d3 E217K (human, UniProt P30533 235-353)
T1 construct: range 201-319 (mature RAP numbering); Forward mutant of m1; same construct; also called RAP E217K; not shown: N-terminal hexahistidine and S-peptide tags of pET30(+)a
T1 sequence (looked up): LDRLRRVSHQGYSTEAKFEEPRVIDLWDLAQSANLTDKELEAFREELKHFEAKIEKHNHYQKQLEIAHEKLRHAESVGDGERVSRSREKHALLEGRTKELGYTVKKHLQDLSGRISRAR
Protocol: (§1) Solid phase binding assays—Purified, refolded CR protein (1 μg) was bound to Nunc Maxisorp™ 96-well plates in TBS pH 8 supplemented with 5 mM CaCl₂ (TBSC) overnight at 4° C. Wells were washed with TBSC and then blocked with TBSC containing 2% bovine serum albumin (BSA). RAP ligands were then incubated with the immobilized receptor at a range of concentrations for 2 hours in the above blocking buffer supplemented with 0.05% Tween-20 at room temperature. Control wells contained no added ligand. As an additional control, to determine whether the absence of calcium affected binding, 10 mM EGTA was included in the incubation medium for some samples. Wells were washed with TBSTC and bound ligands detected with polyclonal anti-RAP (BP41/42, 1:1,000, BioMarin). Excess primary antibody was removed and wells washed before incubation with the secondary antibody, HRP-conjugated goat anti rabbit IgG (Bio-Rad). After washing, TMB substrate solutions (Bio-Rad) were added to detect HRP. Color development was stopped with 1N HCl. Absorption at 450 nm was measured with a microplate spectrophotometer (Molecular Devices). Data were plotted and Kd values derived by non-linear regression with the assumption of single-site binding (GraphPad Prism).
(§2) Next, the binding of RAP d3 and MegaRAP1 d3 proteins to LRP1 CR3-5 and LRP2 CR89 was assessed. […] In all cases, 10 mM EGTA prevented binding of both RAP d3 and MegaRAP1 d3 to CR proteins. Since calcium was the only divalent metal ion present in the binding buffer, this observation is consistent with both RAP d3 and MegaRAP1 d3 binding to calcium-loaded CR pairs. […] Therefore, wild-type RAP d3 and MegaRAP1 d3 have inverted binding preferences for these two receptor fragments.

RAP d3 K270E = biological target: T2, RAP d3 K270E (human, UniProt P30533 235-353)
T2 construct: range 201-319 (mature RAP numbering); Forward mutant of m1; same construct; also called RAP K270E; not shown: N-terminal hexahistidine and S-peptide tags of pET30(+)a
T2 sequence (looked up): T1 sequence (looked up) with K17E, K70E
Protocol: as §1, §2

RAP d3 K256A, K270E = biological target: T3, RAP d3 K256A, K270E (human, UniProt P30533 235-353)
T3 construct: range 201-319 (mature RAP numbering); Forward mutant of m1; same construct; also called RAP K256A, K270E; not shown: N-terminal hexahistidine and S-peptide tags of pET30(+)a
T3 sequence (looked up): T1 sequence (looked up) with K17E, K56A, K70E
Protocol: as §1, §2

RAP d3 E251K, K270E = biological target: T4, RAP d3 E251K, K270E (human, UniProt P30533 235-353)
T4 construct: range 201-319 (mature RAP numbering); Forward mutant of m1; same construct; also called RAP E251K, K270E; not shown: N-terminal hexahistidine and S-peptide tags of pET30(+)a
T4 sequence (looked up): T1 sequence (looked up) with K17E, E51K, K70E
Protocol: as §1, §2

- binding result (RAP d3 E217K): no binding (tested: 100 nM)
- binding result (RAP d3 K270E): no binding (tested: 100 nM)
- binding result (RAP d3 K256A, K270E): no binding (tested: 100 nM)
- binding result (RAP d3 E251K, K270E): no binding (tested: 100 nM)
B1: LRP2 CR89 (receptor)
chain: not shown
notes: domain: CR89; Limits of the fragment are set only by the primers LRP2CR8F and LRP2CR9R; also called YVWR; L2 CR89; not shown: N-terminal hexahistidine and S-peptide tags of pET30(+)a
